Reference: publication PMC2706832 (Protein expression and purification, 2009)
Where two headings read alike, the source gives them in different places. One block for each binder: values may come before it. fluorescein‑5‑maleimide = fluorescein-5-maleimide

Assays:
[1] = target: T1, CCR1 solubilized from HEK293 membranes and purified in detergent/lipid micelles (human, UniProt P32246 1-355); experiment: fluorescence polarisation
T1 sequence (looked up): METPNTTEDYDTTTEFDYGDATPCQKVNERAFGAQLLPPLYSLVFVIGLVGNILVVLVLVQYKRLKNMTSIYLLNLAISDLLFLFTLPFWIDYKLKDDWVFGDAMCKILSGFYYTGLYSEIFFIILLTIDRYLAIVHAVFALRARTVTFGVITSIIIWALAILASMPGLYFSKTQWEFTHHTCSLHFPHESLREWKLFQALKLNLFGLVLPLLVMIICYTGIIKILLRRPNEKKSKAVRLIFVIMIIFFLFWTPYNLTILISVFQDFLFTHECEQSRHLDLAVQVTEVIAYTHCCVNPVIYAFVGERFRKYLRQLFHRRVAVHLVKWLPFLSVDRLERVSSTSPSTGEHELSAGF

[2] = target: T1, CCR1 solubilized from HEK293 membranes …; experiment: fluorescence polarisation; remark: listed apart in the source
[3] = target: T1, CCR1 solubilized from HEK293 membranes …; experiment: fluorescence polarisation; remark: listed apart in the source
[4] = target: T1, CCR1 solubilized from HEK293 membranes …; experiment: fluorescence polarisation; remark: listed apart in the source
[5] = target: T1, CCR1 solubilized from HEK293 membranes …; experiment: fluorescence polarisation; remark: listed apart in the source
[6] = target: T2, wild-type CCR1 expressed on HEK293 cells (human, UniProt P32246 1-355); experiment: cell-based or functional assay
T2 sequence (looked up): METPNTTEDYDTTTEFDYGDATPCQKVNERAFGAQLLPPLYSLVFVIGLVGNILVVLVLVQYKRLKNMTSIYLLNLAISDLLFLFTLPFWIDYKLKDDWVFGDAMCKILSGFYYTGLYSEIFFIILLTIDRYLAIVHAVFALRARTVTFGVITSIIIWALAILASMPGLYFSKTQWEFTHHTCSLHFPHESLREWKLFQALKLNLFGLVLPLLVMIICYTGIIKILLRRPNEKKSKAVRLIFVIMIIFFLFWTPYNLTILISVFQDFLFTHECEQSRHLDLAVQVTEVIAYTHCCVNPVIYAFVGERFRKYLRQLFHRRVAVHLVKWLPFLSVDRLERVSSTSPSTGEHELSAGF

[7] = target: T2, wild-type CCR1 expressed on HEK293 cells; experiment: radioligand binding

Kd [1]: 21 nM
Kd [2]: 35 nM
Kd [3]: > 1000 nM
Kd [4]: > 1000 nM
Kd [5]: > 1000 nM
B1: CCL14-fluorescein (ligand)
chain: GPYHPSECCFTYTTYKIPRQRIMDYYETNSQCSKPGIVFITKRGHSVCTNPSDKWVQDYIKDMKENC(fluorescein‑5‑maleimide)

EC50 of calcium mobilization in CCR1-transfected HEK293 cells (FLIPR Calcium 4) [6]: 8 nM
B2: CCL7 (ligand)
chain: not shown

IC50 [7]: 0.9 nM
B3: wild-type CCL3 (ligand, UniProt P10147 24-92, looked up)
chain: SLAADTPTACCFSYTSRQIPQNFIADYFETSSQCSKPGVIFLTKRSRQVCADPSEEWVQKYVSDLELSA
